Test results taken from PMC12840758, “The Cold Shock Protein CspB from Mycobacterium tuberculosis Binds to MTS0997 sRNA and MTS1338 sRNA as a Dimer” (International Journal of Molecular Sciences, 2026).

Target: the molecule itself
Assay: SEC; Superdex 75 Increase 10/300 GL, 200 mM NaCl, 50 mM Tris-HCl pH 8.0; 1 mg/mL, 100 uL injected, 0.5 mL/min; calibrated with monomeric globular proteins of 45.8, 24.8, 15.4 and 7.3 kDa

B1: Cold shock protein CspB from Mycobacterium tuberculosis (natural protein)
chain: MPTGKVKWYDPDKGFGFLSQEGGEDVYVRSSALPTGVEALKAGQRVEFGIASGRRGPQALSLRLIEPPPSLSRPRREPAAEHKHSPDELHGMVEDMITLLESTVQPELRKGRYPDRKTARRVAEVVRAVAREFES
notes: Removal of the C-terminal His6 tag is not mentioned; also called MtbCspB; M. tuberculosis CspB
  stoichiometry N: 2
